The values that follow come from patent US20160130303.

To fix the notation:
T1: L803-mts (not fully specified)
T1 chain: GKEAPPAPPQSP

T2: PGS-1, YRRAAVPPSPSLSRHSSPSQS(p)EDEEE
T2 chain: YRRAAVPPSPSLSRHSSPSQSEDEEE

T3: p9CREB, ILSRRPS(p)YR
T3 chain: ILSRRPSYR

T4: pIRS-1, RREGGMSRPAS(p)VDG
T4 chain: RREGGMSRPASVDG

B1: wild-type (WT) GSK-3β (protein)
chain: MSGRPRTTSFAESCKPVQQPSAFGSMKVSRDKDGSKVTTVVATPGQGPDRPQEVSYTDTKVIGNGSFGVVYQAKLCDSGELVAIKKVLQDKRFKNRELQIMRKLDHCNIVRLRYFFYSSGEKKDEVYLNLVLDYVPETVYRVARHYSRAKQTLPVIYVKLYMYQLFRSLAYIHSFGICHRDIKPQNLLLDPDTAVLKLCDFGSAKQLVRGEPNVSYICSRYYRAPELIFGATDYTSSIDVWSAGCVLAELLLGQPIFPGDSGVDQLVEIIKVLGTPTREQIREMNPNYTEFKFPQIKAHPWTKDSSGTGHFTSGVRVFRPRTPPEAIALCSRLLEYTPTARLTPLEACAHSFFDELRDPNVKLPNGRDTPALFNFTTQELSSNPPLATILIPPHARIQAAASTPTNATAASDANTGDRGQTNNAASASASNST
B2: GSK-3β F93A mutant (protein)
chain: B1 chain with F93A
B3: GSK-3β D90A mutant (protein)
chain: B1 chain with D90A
B4: GSK-3β R92A mutant (protein)
chain: B1 chain with R92A
B5: GSK-3β K94A mutant (protein)
chain: B1 chain with K94A
B6: GSK-3β K91A mutant (protein)
chain: B1 chain with K91A

Where a chain is given by its changes, count along the chain named. In names and notes the source's numbering stands.

The first series has as its target T1, L803-mts.
Turning to B1, the “in vitro kinase assays using pIRS-1, p9CREB, and pGS-1 substrate in the presence or absence of L803-mts (100 µM)” value is given as “L803-mts (SEQ ID NO:5) competes with various substrates”.

The next series concerns the target T2, PGS-1, YRRAAVPPSPSLSRHSSPSQS(p)EDEEE.
With B2, the Substrate phosphorylation (% of WTGSK-3β) (% of WTGSK-3β) amounted to 13.
For B3, the Substrate phosphorylation (% of WTGSK-3β) (% of WTGSK-3β) was determined as 83.
With B4, the Substrate phosphorylation (% of WTGSK-3β) (% of WTGSK-3β) is 41.
In turn, B5 registered a Substrate phosphorylation (% of WTGSK-3β) (% of WTGSK-3β) of 19.
In turn, B6 displayed a Substrate phosphorylation (% of WTGSK-3β) (% of WTGSK-3β) of 119.

A further series addresses T3, p9CREB, ILSRRPS(p)YR.
As to B2, the Substrate phosphorylation (% of WTGSK-3β) (% of WTGSK-3β) amounted to 46.
In turn, B3 came in with a Substrate phosphorylation (% of WTGSK-3β) (% of WTGSK-3β) of 92.
The protein B4 yielded a Substrate phosphorylation (% of WTGSK-3β) (% of WTGSK-3β) of 49.
Still for that read-out and setting: the figure for B5 is 71; for B6 it is 161.

Another series deals with T4, pIRS-1, RREGGMSRPAS(p)VDG.
B2 returned a Substrate phosphorylation (% of WTGSK-3β) (% of WTGSK-3β) of 42.
In the case of B3, the Substrate phosphorylation (% of WTGSK-3β) (% of WTGSK-3β) came out at 88.
B4: the Substrate phosphorylation (% of WTGSK-3β) (% of WTGSK-3β) was 60.
Protein B5 had a Substrate phosphorylation (% of WTGSK-3β) (% of WTGSK-3β) of 52.
As to B6, the Substrate phosphorylation (% of WTGSK-3β) (% of WTGSK-3β) came out at 140.
